Measurements reported in patent US20040077031.

Tested on: MAS (methionine-alanine-serine) trimeric peptide

With “recombinant human methionine aminopeptidase type 1 (MetAP1) with N-terminal histidine tag” the “enzymatic cleavage of peptide substrate” value was “showed enzymatic activity in cleaving a tripeptide MAS substrate”.
